{
  "source": "patent US20140271457A1",
  "about": "(AbbVie / Abbott, published 2014)",
  "binders": {"B1": {"name": "DVD2821 (bispecific antibody, IgG1)", "VH": "EVQLVESGGGLVQPGGSLRLSCAASGFSLTNNNVNWVRQAPGKGLEWVGGVWAGGATDYNSALKSRFTISRDNSKNTAYLQMNSLRAEDTAVYYCARDGGYSSSTLYAMDAWGQGTLVTVSSASTKGPEVQLVQSGAEVKKPGASVKVSCKASGYTFANYGIIWVRQAPGQGLEWMGWINTYTGKPTYAQKFQGRVTMTTDTSTSTAYMELSSLRSEDTAVYYCARKLFTTMDVTDNAMDYWGQGTTVTVSS", "VL": "DIQMTQSPSSLSASVGDRVTITCRASEDIYNALAWYQQKPGKAPKLLIYNTDTLHTGVPSRFSGSGSGTDYTLTISSLQPEDFATYFCQHYFHYPRTFGQGTKVEIKRTVAAPSVFIFPPDIQMTQSPSSLSASVGDRVTITCRASQDISQYLNWYQQKPGKAPKLLIYYTSRLQSGVPSRFSGSGSGTDFTLTISSLQPEDFATYFCQQGNTWPPTFGQGTKLEIKR"}, "B2": {"name": "DVD3046 (bispecific antibody, IgG1)", "VH": "B1 VH with A158N, T230N, M232V, D233A", "VL": "B1 VL with S150E, Q151N, W214Q"}, "B3": {"name": "DVD3039 (bispecific antibody, IgG1)", "VH": "EVQLVQSGAEVKKPGASVKVSCKASGYTFNNYGIIWVRQAPGQGLEWMGWINTYTGKPTYAQKFQGRVTMTTDTSTSTAYMELSSLRSEDTAVYYCARKLFNTVAVTDNAMDYWGQGTTVTVSSASTKGPEVQLVESGGGLVQPGGSLRLSCAASGFSLTNNNVNWVRQAPGKGLEWVGGVWAGGATDYNSALKSRFTISRDNSKNTAYLQMNSLRAEDTAVYYCARDGGYSSSTLYAMDAWGQGTLVTVSS", "VL": "DIQMTQSPSSLSASVGDRVTITCRASQDIENYLNWYQQKPGKAPKLLIYYTSRLQSGVPSRFSGSGSGTDFTLTISSLQPEDFATYFCQQGNTQPPTFGQGTKLEIKRTVAAPDIQMTQSPSSLSASVGDRVTITCRASEDIYNALAWYQQKPGKAPKLLIYNTDTLHTGVPSRFSGSGSGTDYTLTISSLQPEDFATYFCQHYFHYPRTFGQGTKVEIKR"}, "B4": {"name": "DVD3041 (bispecific antibody, IgG1)", "VH": "B3 VH", "VL": "DIQMTQSPSSLSASVGDRVTITCRASQDIENYLNWYQQKPGKAPKLLIYYTSRLQSGVPSRFSGSGSGTDFTLTISSLQPEDFATYFCQQGNTQPPTFGQGTKLEIKRTVAAPSVFIFPPDIQMTQSPSSLSASVGDRVTITCRASEDIYNALAWYQQKPGKAPKLLIYNTDTLHTGVPSRFSGSGSGTDYTLTISSLQPEDFATYFCQHYFHYPRTFGQGTKVEIKR"}, "B5": {"name": "DVD3042 (bispecific antibody, IgG1)", "VH": "EVQLVQSGAEVKKPGASVKVSCKASGYTFNNYGIIWVRQAPGQGLEWMGWINTYTGKPTYAQKFQGRVTMTTDTSTSTAYMELSSLRSEDTAVYYCARKLFNTVAVTDNAMDYWGQGTTVTVSSASTKGPSVFPLAPEVQLVESGGGLVQPGGSLRLSCAASGFSLTNNNVNWVRQAPGKGLEWVGGVWAGGATDYNSALKSRFTISRDNSKNTAYLQMNSLRAEDTAVYYCARDGGYSSSTLYAMDAWGQGTLVTVSS", "VL": "B3 VL"}, "B6": {"name": "DVD2822 (bispecific antibody, IgG1)", "VH": "EVQLVESGGGLVQPGGSLRLSCAASGFSLTNNNVNWVRQAPGKGLEWVGGVWAGGATDYNSALKSRFTISRDNSKNTAYLQMNSLRAEDTAVYYCARDGGYSSSTLYAMDAWGQGTLVTVSSASTKGPSVFPLAPEVQLVQSGAEVKKPGASVKVSCKASGYTFANYGIIWVRQAPGQGLEWMGWINTYTGKPTYAQKFQGRVTMTTDTSTSTAYMELSSLRSEDTAVYYCARKLFTTMDVTDNAMDYWGQGTTVTVSS", "VL": "DIQMTQSPSSLSASVGDRVTITCRASEDIYNALAWYQQKPGKAPKLLIYNTDTLHTGVPSRFSGSGSGTDYTLTISSLQPEDFATYFCQHYFHYPRTFGQGTKVEIKRTVAAPDIQMTQSPSSLSASVGDRVTITCRASQDISQYLNWYQQKPGKAPKLLIYYTSRLQSGVPSRFSGSGSGTDFTLTISSLQPEDFATYFCQQGNTWPPTFGQGTKLEIKR"}, "B7": {"name": "DVD3038 (bispecific antibody, IgG1)", "VH": "EVQLVQSGAEVKKPGASVKVSCKASGYTFNNYGIIWVRQAPGQGLEWMGWINTYTGKPTYAQKFQGRVTMTTDTSTSTAYMELSSLRSEDTAVYYCARKLFNTVAVTDNAMDYWGQGTTVTVSSGGGGSGGGGSEVQLVESGGGLVQPGGSLRLSCAASGFSLTNNNVNWVRQAPGKGLEWVGGVWAGGATDYNSALKSRFTISRDNSKNTAYLQMNSLRAEDTAVYYCARDGGYSSSTLYAMDAWGQGTLVTVSS", "VL": "DIQMTQSPSSLSASVGDRVTITCRASQDIENYLNWYQQKPGKAPKLLIYYTSRLQSGVPSRFSGSGSGTDFTLTISSLQPEDFATYFCQQGNTQPPTFGQGTKLEIKRGGSGGGGSGDIQMTQSPSSLSASVGDRVTITCRASEDIYNALAWYQQKPGKAPKLLIYNTDTLHTGVPSRFSGSGSGTDYTLTISSLQPEDFATYFCQHYFHYPRTFGQGTKVEIKR"}, "B8": {"name": "AB441 (antibody, V domains shown)", "VH": "EVQLVQSGAEVKKPGASVKVSCKASGYTFANYGIIWVRQAPGQGLEWMGWINTYTGKPTYAQKFQGRVTMTTDTSTSTAYMELSSLRSEDTAVYYCARKLFTTMDVTDNAMDYWGQGTTVTVSS", "VL": "DIQMTQSPSSLSASVGDRVTITCRASQDISQYLNWYQQKPGKAPKLLIYYTSRLQSGVPSRFSGSGSGTDFTLTISSLQPEDFATYFCQQGNTWPPTFGQGTKLEIKR", "notes": "parent antibody"}, "B9": {"name": "DVD3163 (bispecific antibody, IgG1)", "VH": "EVQLVQSGAEVKKPGASVKVSCKASGYTFANYGIIWVRQAPGQGLEWMGWINTYTGKPTYAQKFQGRVTMTTDTSTSTAYMELSSLRSEDTAVYYCARKLFTTMDVTDNAMDYWGQGTTVTVSSGGGGSGGGGSEVQLVQSGAEVKKPGASVKVSCKASGYTFTSYWMHWVRQAPGQGLEWIGNINPKGGSNIYNEKFQGRVTMTRDTSISTAYMELSRLRSDDTAVYYCARLDYFGDSFDLWGQGTTVTVSS", "VL": "DIQMTQSPSSLSASVGDRVTITCRASQDISQYLNWYQQKPGKAPKLLIYYTSRLQSGVPSRFSGSGSGTDFTLTISSLQPEDFATYFCQQGNTWPPTFGQGTKLEIKRGGSGGGGSGDIQMTQSPSSLSASVGDRVTITCRASQGIRNYLNWYQQKPGKAPKLLIYYASNLEVGVPSRFSGSGSGTDYTLTISSLQPEDFATYYCQQDNRFPYTFGGGTKVEIKR", "notes": "DVD-Ig; wt hIgG1 + kappa constants"}, "B10": {"name": "DVD3107 (bispecific antibody, IgG1)", "VH": "EVQLVQSGAEVKKPGASVKVSCKASGYTFANYGIIWVRQAPGQGLEWMGWINTYTGKPTYAQKFQGRVTMTTDTSTSTAYMELSSLRSEDTAVYYCARKLFTTMDVTDNAMDYWGQGTTVTVSSASTKGPSVFPLAPEVQLVQSGAEVKKPGASVKVSCKASGYTFTTYGVSWVRQAPGQGLEWMGEIYPGNYNTYYNEKFRGRVTMTTDTSTSTAYMELRSLRSDDTAVYYCARWRTSYFSDYGYFDYWGQGTTVTVSS", "VL": "DIQMTQSPSSLSASVGDRVTITCRASQDISQYLNWYQQKPGKAPKLLIYYTSRLQSGVPSRFSGSGSGTDFTLTISSLQPEDFATYFCQQGNTWPPTFGQGTKLEIKRTVAAPDVVMTQSPLSLPVTLGQPASISCRSSQSLVHSHGNTYLHWYQQRPGQSPRLLIYTVSNRFSGVPDRFSGSGSGTDFTLKISRVEAEDVGVYYCSQSTHVPYTFGGGTKVEIKR", "notes": "as for B9"}, "B11": {"name": "DVD3106 (bispecific antibody, IgG1)", "VH": "EVQLVQSGAEVKKPGASVKVSCKASGYTFANYGIIWVRQAPGQGLEWMGWINTYTGKPTYAQKFQGRVTMTTDTSTSTAYMELSSLRSEDTAVYYCARKLFTTMDVTDNAMDYWGQGTTVTVSSASTKGPEVQLVQSGAEVKKPGASVKVSCKASGYTFTTYGVSWVRQAPGQGLEWMGEIYPGNYNTYYNEKFRGRVTMTTDTSTSTAYMELRSLRSDDTAVYYCARWRTSYFSDYGYFDYWGQGTTVTVSS", "VL": "DIQMTQSPSSLSASVGDRVTITCRASQDISQYLNWYQQKPGKAPKLLIYYTSRLQSGVPSRFSGSGSGTDFTLTISSLQPEDFATYFCQQGNTWPPTFGQGTKLEIKRTVAAPSVFIFPPDVVMTQSPLSLPVTLGQPASISCRSSQSLVHSHGNTYLHWYQQRPGQSPRLLIYTVSNRFSGVPDRFSGSGSGTDFTLKISRVEAEDVGVYYCSQSTHVPYTFGGGTKVEIKR", "notes": "as for B9"}},
  "note": "Changes are numbered by the printed parent chain.",
  "data": [
    {"molecular_target": "Recombinant Human β-NGF (human, UniProt P01138 122-241)", "sequence (P01138 122-241 limits assumed)": "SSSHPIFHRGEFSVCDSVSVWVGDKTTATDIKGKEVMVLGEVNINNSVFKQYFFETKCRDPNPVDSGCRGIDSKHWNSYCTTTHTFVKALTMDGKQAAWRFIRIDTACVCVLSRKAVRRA", "assay": "cell-based or functional assay", "units": {"N-Terminal VD NGF Neutralization Assay IC50": "nM", "C-Terminal VD NGF Neutralization Assay IC50": "nM"}, "values": [
      {"binder": "B1", "N-Terminal VD NGF Neutralization Assay IC50": 0.011},
      {"binder": "B2", "N-Terminal VD NGF Neutralization Assay IC50": 0.145},
      {"binder": "B3", "C-Terminal VD NGF Neutralization Assay IC50": 0.088},
      {"binder": "B4", "C-Terminal VD NGF Neutralization Assay IC50": "> 10"},
      {"binder": "B5", "C-Terminal VD NGF Neutralization Assay IC50": "> 10"},
      {"binder": "B6", "N-Terminal VD NGF Neutralization Assay IC50": 0.003},
      {"binder": "B7", "C-Terminal VD NGF Neutralization Assay IC50": 0.093}
    ]},
    {"molecular_target": "T1, Recombinant Human TNF-α/TNFSF1A (human, UniProt P01375 77-233)", "T1 construct": "vendor reagent is named for Biacore; the neutralization assay says only huTNFα; also called huTNFα", "T1 sequence (P01375 77-233 limits assumed)": "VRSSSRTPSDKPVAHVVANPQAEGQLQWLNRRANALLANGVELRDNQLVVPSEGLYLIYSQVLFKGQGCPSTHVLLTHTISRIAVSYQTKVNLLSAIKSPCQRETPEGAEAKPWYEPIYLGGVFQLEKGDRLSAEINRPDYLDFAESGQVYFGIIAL", "assay": "Biacore SPR", "procedure,_shortened": "(§1)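 Kinetic constants come from global 1:1 model fitting (Rmax local) at 0.8–100 nM antigen. Flow was 50 μl/min with 5 min association and 10 min dissociation. Capture used goat anti-mouse IgG Fcγ on a CM5 chip in HBS-EP+ at 25 °C.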", "units": {"Kd": "nM", "koff": "s⁻¹", "kon": "M⁻¹ s⁻¹"}, "values": [
      {"binder": "B8", "Kd": 0.0024, "koff": "1.8e-05", "kon": "7.5e+06"},
      {"binder": "B9", "Kd": 0.0039, "koff": "5e-05", "kon": "1.3e+07"},
      {"binder": "B10", "Kd": 0.053, "koff": 0.00015, "kon": "2.8e+06"},
      {"binder": "B11", "Kd": 0.022, "koff": "8.5e-05", "kon": "3.9e+06"}
    ]},
    {"molecular_target": "Recombinant Human IL-13 (human, UniProt P35225 35-146, limits assumed)", "sequence (P35225 35-146 limits assumed)": "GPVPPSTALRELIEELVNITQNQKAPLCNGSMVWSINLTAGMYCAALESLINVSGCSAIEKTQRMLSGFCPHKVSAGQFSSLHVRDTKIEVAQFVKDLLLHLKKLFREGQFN", "assay": "Biacore SPR", "procedure,_shortened": "as §1", "units": {"Kd": "nM", "koff": "s⁻¹", "kon": "M⁻¹ s⁻¹"}, "values": [
      {"binder": "B9", "Kd": 0.61, "koff": "8.4e-05", "kon": 140000},
      {"binder": "B10", "Kd": 0.087, "koff": "7e-05", "kon": 810000},
      {"binder": "B11", "Kd": 0.11, "koff": "6.4e-05", "kon": 570000}
    ]},
    {"molecular_target": "T1, Recombinant Human TNF-α/TNFSF1A", "assay": "cell-based or functional assay", "units": {"C-Terminal VD huTNFα Neutralization Assay IC50": "nM", "N-Terminal VD huTNFα Neutralization Assay IC50": "nM", "huTNFα Neutralization Assay IC50": "nM"}, "values": [
      {"binder": "B1", "C-Terminal VD huTNFα Neutralization Assay IC50": 0.09},
      {"binder": "B2", "C-Terminal VD huTNFα Neutralization Assay IC50": 0.05},
      {"binder": "B3", "N-Terminal VD huTNFα Neutralization Assay IC50": 0.012},
      {"binder": "B4", "N-Terminal VD huTNFα Neutralization Assay IC50": 0.006},
      {"binder": "B5", "N-Terminal VD huTNFα Neutralization Assay IC50": 0.006},
      {"binder": "B8", "huTNFα Neutralization Assay IC50": 0.037},
      {"binder": "B9", "N-Terminal VD huTNFα Neutralization Assay IC50": 0.015},
      {"binder": "B10", "N-Terminal VD huTNFα Neutralization Assay IC50": 0.015},
      {"binder": "B6", "C-Terminal VD huTNFα Neutralization Assay IC50": 0.107},
      {"binder": "B11", "N-Terminal VD huTNFα Neutralization Assay IC50": 0.018},
      {"binder": "B7", "N-Terminal VD huTNFα Neutralization Assay IC50": 0.002}
    ]}
  ]
}
